“And” between values parts separate entries of the source, which are not always exact repeats. Identical values can stand only once.
Key:
[1] = target: T1, Piromyces strain E2 xylose isomerase, native (XI-P), SEQ ID NO: 35 (gene SEQ ID NO: 34) (Piromyces sp. E2, UniProt A0ACD6B9F5); test: Xylose isomerase kinetics (SDH-coupled, NADH, A340), with and without xylitol; type: biochemical; settings: about 0 to about 50 mM xylitol; pH 7.5, about 30° C.
T1 construct: soluble whole cell extract; SDH-coupled
Method: (§1) About 20 μg of soluble whole cell extract was incubated in the presence of 100 mM Tris, pH 7.5, 10 mM MgCl2, 0.15 mM NADH (Sigma, St. Louis, Mo.), and about 2 U sorbitol dehydrogenase (Roche) at about 30° C. […] A Beckman DU-800 was utilized with an Enzyme Mechanism software package (Beckman Coulter, Inc.), and the change in the A340 was monitored for 2-3 minutes.
(§2) Approximately 20 μg of soluble whole cell extract from each transformed cell line, prepared using Y-PER plus reagent as described above, was incubated in a solution containing about 100 mM Tris, pH 7.5, 10 mM MgCl ? 2, 0.15 mM NADH (Sigma, St. Louis, Mo.), and 2 U Sorbitol Dehydrogenase (SDH) (Roche, Indianapolis, Ind.) at about 30° C. […] A Beckman DU-800 spectrophotometer was utilized with an Enzyme Mechanism software package (Beckman Coulter, Inc, Brea, Calif.), and the change in the A340 was monitored for 2-3 minutes. […]
(§3) Approximately 20 μg of soluble whole cell extract from each transformed cell line was prepared using Y-PER plus reagent as described above was incubated in a solution containing about 100 mM Tris, pH 7.5, 10 mM MgCl ? […] A Beckman DU-800 spectrophotometer was utilized with an Enzyme Mechanism software package (Beckman Coulter, Inc, Brea, Calif.), and the change in the A340 was monitored for 2-3 minutes.

[2] = target: T2, Ruminococcus flavefaciens strain 17 (Siijpesteijn 1948) xylose isomerase, native (XI-R), SEQ ID NO: 31 (gene SEQ ID NO: 29/30) (Ruminococcus flavefaciens, UniProt Q9S306); test: as above; type: biochemical; settings: about 0 to about 50 mM xylitol; pH 7.5, about 30° C.
T2 construct: made in house; host or cells: Saccharomyces cerevisiae BY4742 (p426GPD); soluble whole cell extract, not purified
T2 sequence (Q9S306 1-438): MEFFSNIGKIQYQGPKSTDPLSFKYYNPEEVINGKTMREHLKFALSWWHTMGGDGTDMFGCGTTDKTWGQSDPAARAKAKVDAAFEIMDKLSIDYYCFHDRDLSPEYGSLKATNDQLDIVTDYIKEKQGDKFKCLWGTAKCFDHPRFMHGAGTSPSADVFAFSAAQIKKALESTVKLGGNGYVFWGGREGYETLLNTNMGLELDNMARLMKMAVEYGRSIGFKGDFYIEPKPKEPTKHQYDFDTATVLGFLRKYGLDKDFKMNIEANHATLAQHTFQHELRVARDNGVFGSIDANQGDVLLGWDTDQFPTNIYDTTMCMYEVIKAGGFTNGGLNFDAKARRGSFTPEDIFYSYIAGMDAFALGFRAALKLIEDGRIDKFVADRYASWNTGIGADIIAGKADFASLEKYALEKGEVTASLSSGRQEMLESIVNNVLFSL
Method: as §1, §2, §3

[3] = target: T3, Ruminococcus flavefaciens xylose isomerase, codon-optimized gene variant (XI-R-COOP), gene SEQ ID NO: 33 (Ruminococcus flavefaciens, UniProt Q9S306); test: as above; type: biochemical; settings: xylose about 40 to about 500 mM; pH 7.5, about 30° C.
T3 sequence (Q9S306 1-438): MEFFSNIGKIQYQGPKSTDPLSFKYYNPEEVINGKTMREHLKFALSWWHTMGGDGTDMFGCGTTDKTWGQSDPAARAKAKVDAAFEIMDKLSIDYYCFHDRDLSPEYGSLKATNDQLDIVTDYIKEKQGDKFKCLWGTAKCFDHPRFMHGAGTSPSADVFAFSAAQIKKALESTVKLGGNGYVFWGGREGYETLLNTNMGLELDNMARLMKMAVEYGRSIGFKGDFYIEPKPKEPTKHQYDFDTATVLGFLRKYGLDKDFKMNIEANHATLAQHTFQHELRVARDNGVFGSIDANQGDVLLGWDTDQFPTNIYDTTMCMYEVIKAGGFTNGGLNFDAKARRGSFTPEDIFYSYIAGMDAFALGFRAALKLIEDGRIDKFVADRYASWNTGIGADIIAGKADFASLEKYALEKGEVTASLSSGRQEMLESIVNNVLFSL
Method: An additional variant of the native R. flavefaciens xylose isomerase gene (XI-R-COOP) was prepared in which all of the codons were optimized for expression in Saccharomyces cerevisiae. This variant gene was synthesized by IDT DNA Inc. and the sequence is set forth below as SEQ ID NO: 33.

[4] = system: Ruminococcus flavefaciens FD-1 (Ruminococcus_FD1) xylose isomerase, SEQ ID NO: 110; test: Kinetics of additional xylose isomerase candidates (Km and specific activity); type: biochemical; settings: xylose 40 to 500 nM; crude S. cerevisiae extract
Text: The results are show in FIG. 25.

[5] = system: xylose isomerase activity; test: Heterologous xylose isomerase expression in engineered yeast (active yes/no); settings: xylose isomerase of the donor organism expressed in engineered yeast (S. cerevisiae)
xylose [6] = test: In vivo evaluation of xylose isomerase constructs in C5 strain: xylose fermentation, aerobic then anaerobic (ethanol, xylose, glucose, OD600, dry cell weight); type: cell-based, Saccharomyces cerevisiae; settings: final sample at 372 hours
Text: The engineered strain was designed to include the following genetic modifications: the native Pho13 gene (alkaline phosphatase specific for p-nitrophenyl phosphate) was disrupted by inserting a construct containing the native TLK1 gene (Transketolase-1); the native aldose reductase gene (Gre3) was disrupted by inserting a construct containing the native high-affinity glucose transporter-7 gene (HXT7); the native glucose-repressible alcohol dehydrogenase II gene (adh2) was disrupted by inserting a construct containing the native xylulokinase gene (XYLK); and the native orotidine-5′ phosphate decarboxylase gene (ura3) was disrupted by inserting a construct containing the native transaldolase 1 gene (TAL1). The resulting strain had the following genotype: pho13::TKL1, gre3::HXT7, adh-2::XYLK, ura3::TAL1.
The C5 strain was transformed using standard protocols with either p426GPD (as a control) or the chimeric variants XI-R, XI-Rp5, XI-Rp10, or XI-Rp15. The transformed cells were grown on SC-glucose minus uracil initially and then passaged onto SC-xylose minus uracil. Cultures of each of the above constructs were made in SC-xylose minus uracil—and grown for one week. The cultures were grown aerobically at 30° C. with 250 rpm agitation, 1 vvm sparge of process air, 21% O2. The pH was controlled at about 5.0 with 1N NaOH. […] At 24 hours elapsed fermentation time the fermentation was switched to anaerobic conditions. […] Oxygen was purged with 100% N2 sparge at 1 vvm until percent O2 was below 1%. Aeration was then set at 0.25 vvm 100% N2.
The final sample also measured biomass by dry cell weight.

xylose [7] = test: Industrial yeast strain BF903 with Ruminococcus xylose isomerase: aerobic growth and xylose consumption on YP-xylose; type: cell-based, Saccharomyces cerevisiae; settings: commercial yeast strain BF903, YP-xylose, 30° C., 7 days, FIG. 11
Method: A commercially available industrial diploid strain of Saccharomyces cerevisiae (strain BF903; “Stillspirits” triple distilled yeast, Brewcraft, Albany, New Zealand; available at Hydrobrew, Oceanside, Calif.) was obtained and was made competent for transformation using known yeast cell transformation procedures. […] Transformed yeast containing each construct were grown overnight aerobically in a 15 ml culture tube on YPD media containing 2% glucose. After about 24 hours, about 25 ml of YP media containing 2% glucose and 100 μg/ml G418 was seeded with the cells at an initial OD600 of 0.5 in a 250 ml Erlenmeyer flask and grown aerobically at 30° C. The cultures were then passaged once every 7 days into fresh media, also at an initial OD600 of 0.5.
Measurements were taken of the cell optical density (OD600) to assess cell density and plated onto YPD with 100 μg/ml G418 to ensure that the plasmid was stable. […] The strains were then grown overnight in YPD (with 100 μg/ml G418) and used to inoculate about 50 ml YP-xylose (with 100 μg/ml G418) into disposable 250 ml Erlenmeyer flasks with vented caps at an initial OD600 of about 1. The cultures were allowed to grow aerobically at 30° C. at 200 rpm for 7 days.

xylose [8] = test: Industrial yeast strain BF903 with Ruminococcus xylose isomerase: sealed serum bottles on YP plus xylose (xylose utilization, ethanol, cell growth); type: cell-based, Saccharomyces cerevisiae; settings: FIG. 12
Method: The serum bottles were sealed with a butyl rubber stopper to prevent air exchange. As a result, the cultures became anaerobic once the available oxygen in the serum bottle was utilized. In general, anaerobiosis (e.g., the onset of anaerobic conditions) occurred a few hours after the culture was inoculated. Xylose utilization, ethanol production and cell growth were measured every twenty four hours.

T1 sequence (A0ACD6B9F5 1-437): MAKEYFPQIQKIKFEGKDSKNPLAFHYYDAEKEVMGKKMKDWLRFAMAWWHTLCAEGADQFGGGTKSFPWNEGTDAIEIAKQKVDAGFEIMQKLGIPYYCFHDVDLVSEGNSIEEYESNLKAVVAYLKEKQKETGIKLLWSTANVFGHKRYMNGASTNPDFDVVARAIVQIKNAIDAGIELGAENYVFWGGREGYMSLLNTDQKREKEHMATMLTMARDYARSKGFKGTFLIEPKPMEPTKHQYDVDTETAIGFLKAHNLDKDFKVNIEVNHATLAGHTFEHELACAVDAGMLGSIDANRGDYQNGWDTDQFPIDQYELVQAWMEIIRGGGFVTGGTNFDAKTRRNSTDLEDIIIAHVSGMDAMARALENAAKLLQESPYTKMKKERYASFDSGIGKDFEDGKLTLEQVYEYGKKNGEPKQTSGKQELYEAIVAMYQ

Molecule: OC[C@@H](O)[C@H](O)[C@@H](O)CO [xylitol]
- Ki [1]: 4.79 mM
- Ki [2]: 43.6 mM

Molecule: OC1OC[C@@H](O)[C@H](O)[C@H]1O (some centres unmarked) [xylose]
- Km [3]: 100 mM
- Km [4]: 71.9 mM

B1: Ruminococcus flavefaciens: native xylose isomerase from Ruminococcus flavefaciens strain 17 (SEQ ID NO: 31) (protein, listed as Ruminococcus flavefaciens)
chain: MEFFSNIGKIQYQGPKSTDPLSFKYYNPEEVINGKTMREHLKFALSWWHTMGGDGTDMFGCGTTDKTWGQSDPAARAKAKVDAAFEIMDKLSIDYYCFHDRDLSPEYGSLKATNDQLDIVTDYIKEKQGDKFKCLWGTAKCFDHPRFMHGAGTSPSADVFAFSAAQIKKALESTVKLGGNGYVFWGGREGYETLLNTNMGLELDNMARLMKMAVEYGRSIGFKGDFYIEPKPKEPTKHQYDFDTATVLGFLRKYGLDKDFKMNIEANHATLAQHTFQHELRVARDNGVFGSIDANQGDVLLGWDTDQFPTNIYDTTMCMYEVIKAGGFTNGGLNFDAKARRGSFTPEDIFYSYIAGMDAFALGFRAALKLIEDGRIDKFVADRYASWNTGIGADIIAGKADFASLEKYALEKGEVTASLSSGRQEMLESIVNNVLFSL
- Active? (yes/no) [5]: Yes
- Glucose (xylose [6]): 0 g/L
- Ethanol (xylose [6]; listed as XI-R): 15.65 g/L and 15.5 g/L
- Xylose (xylose [6]; listed as XI-R): 3.14 g/L and 3.85 g/L
- xylose consumption versus vector control (xylose [7]): more efficient at consuming xylose
- cell density versus vector only control (xylose [8]): grew to a higher cell density
- ethanol production from xylose versus vector only control (xylose [8]): produced more ethanol

Source: patent US20110165660A1, “ENGINEERED MICROORGANISMS WITH ENHANCED FERMENTATION ACTIVITY” (VERDEZYNE, INC., priority 2009, published 2011)
